Assay results: paper PMC3380618

B1: PMe-2 racemic (dsDNA)
DNA 1: TGTGTTGTAGGATATCCTACAGGT
DNA 2: ACCTGTAGGATATCCTACAACACA
modifications: racemic Rp,Sp methylphosphonate at P-2, symmetric in both strands
B2: FRET 14 bp GATATC (dsDNA)
DNA 1: AGAAGATATCTTGA
DNA 2: TCAAGATATCTTCT

Columns and labels:
EcoRV K119A = EcoRV K119A (UniProt P04390 2-245, K119A); assay: filter binding
[1] = molecular target: EcoRV endonuclease wild type (UniProt P04390 2-245); assay: FRET

Row | Binder | Kd (EcoRV K119A) [pM] | binding result [1]
1 | B1 | 1.1 | 
2 | B2 |  | binds
